Test results: patent US20200109188A1 (AstraZeneca / MedImmune, published 2020)
Read-outs that look alike come from different tables or passages of the source.

B1: Antibody 11 (antibody, V domains shown)
VH: QVQLQQSGPGLVKPSQTLSLTCAISGDSVSSYNAVWNWIRQSPSRGLEWLGRTYYRSGWYNDYAESVKSRITINPDTSKNQFSLQLNSVTPEDTAVYYCARSGHITVFGVNVDAFDMWGQGTMVTVSS
VL: DIQMTQSPSSLSASVGDRVTITCRTSQSLSSYTHWYQQKPGKAPKLLIYAASSRLSGVPSRFSGSGSGTDFTLTISSLQPEDFATYYCQQSRTFGQGTKVEIK
B2: Antibody 13 (antibody, V domains shown)
VH: QVQLQQSGPGLVKPSQTLSLTCAISGDSVSSYNAVWNWIRQSPSRGLEWLGRTYYRSGWYNDYAESVKSRITINPDTSKNQFSLQLNSVTPEDTAVYYCARSGHITVFGVNVDAFDMWGQGTMVTVSS
VL: DIQMTQSPSSLSASVGDRVTITCRTSQSLSSYDHWYQQKPGKAPKLLIYAASSRLSGVPSRFSGSGSGTDFTLTISSLQPEDFATYYCQQSRTFGQGTKVEIK
B3: Antibody 14 (antibody, V domains shown)
VH: QVQLQQSGPGLVKPSQTLSLTCAISGDSVSSNNAVWNWIRQSPSRGLEWLGRTYYRSKWYNDYAESVKSRITINPDTSKNQFSLQLNSVTPEDTAVYYCARSGHITVFGVNVDAFDMWGQGTTVTVSS
VL: DIQMTQSPSSLSASVGDRVTITCRTSQSLSSYTHWYQQKPGKAPKLLIYAASSRLSGVPSRFSGSGSGTDFTLTISSLQPEDFATYYCQQSRTFGQGTKVEIK
B4: Antibody 10 (antibody, V domains shown)
VH: QVQLQQSGPGLVKPSQTLSLTCAISGDSVSSNSATWNWIRQSPSRGLEWLGRTYYRSKWYNDYADFLKRRITINPDTSNNEVSLRLTSVTPDDTALYYCARGGHITVFGVNIDAFDVWGQGTMVTVSS
VL: DIQMTQSPSSLSASVGDRITISCRTSQSLRSYLHWYQQKPGKAPKLLIYASSTLQSGVPSRFSGSGSGTDFTLTISNLQPEDFATYYCQLSRTFGQGTKVEIK
B5: Antibody 3 (antibody, V domains shown)
VH: QVQLQESGPGLVKPSQTLSLTCAISGDSVSSNNAVWNWIRQSPSRGLEWLGRTYYRSKWYNDYAESVKSRITVNPDTSKNQFSLHLKSVTPEDTAVFYCVRSGHITVFGVNVDAFDMWGQGTMVTVSS
VL: DIQMTQSPSSLSASVGDRVTITCRTSQSLSSYLHWYQQKPGKAPKLLIYAASSLQSGVPSRFSGSGSGTDFTLTISSLQPEDFATYYCQQSRTFGQGTKVEIK
B6: Antibody 15 (antibody, V domains shown)
VH: QVQLQQSGPGLVKPSQTLSLTCAISGDSVSSNNAVWNWIRQSPSRGLEWLGRTYYRSKWYNDYAESVKSRITINPDTSKNQFSLQLNSVTPEDTAVYYCARSGHITVFGVNVDAFDMWGQGTTVTVSS
VL: DIQMTQSPSSLSASVGDRVTITCRTSQSLSSYTHWYQQKPGKAPKLLIYAASSRGSGVPSRFSGSGSGTDFTLTISSLQPEDFATYYCQQSRTFGQGTKVEIK
B7: Antibody 12 (antibody, V domains shown)
VH: QVQLQQSGPGLVKPSQTLSLTCAISGDSVSSYNAVWNWIRQSPSRGLEWLGRTYYRSGWYNDYAESVKSRITINPDTSKNQFSLQLNSVTPEDTAVYYCARSGHITVFGVNVDAFDMWGQGTMVTVSS
VL: DIQMTQSPSSLSASVGDRVTITCRTSQSLSSYTHWYQQKPGKAPKLLIYAASSRGSGVPSRFSGSGSGTDFTLTISSLQPEDFATYYCQQSRTFGQGTKVEIK
B8: Antibody 8 (antibody, V domains shown)
VH: QVQLQQSGPGLVKPSQTLSLTCVISGDTVSSNRATWNWMRQSPLRGLEWLGRTYYRSKWYNDYAVSVKSRVVINPDTSKNQVSLQLNTVTPDDSGVYFCARGGHITVFGVNIDAFDIWGLGTKVTVSS
VL: DIQMTQSPSSLSASVGDRVTISCRASQRLNSYLHWYQQTPGQAPKLLIYATSTLQSGVSPRFSGSGSGTDFTLTISSLQPEDVATYYCQLSRTFGHGTKVEIK
B9: Antibody 5 (antibody, V domains shown)
VH: QVQLQQSGPGLVKPSQTLSLTCAISGDRVSSNSAVWNWIRQSPSRGLEWLGRTYYRSKWYYDYAESVKSRIVIDPDTSKNQVSLQLNSVTPEDSAIYYCARGGHITVFGLNIDAYDIWGQGAMVTVSS
VL: DIQMTQSPSSLSASVGDRVTISCRAQSLSSYLHWYQQKPGQPPKLLIYAATTLQSGVPSRFSGSGSGTDFTLTISTFQAEDVATYYCQQSRTFGQGTKVEIK
B10: Antibody 6 (antibody, V domains shown)
VH: QVQLQQSGPGLVKPSQTLSLTCAISGDRVSSNSAVWNWIRQSPSRGLEWLGRTYYRSKWYYDYAESVKSRIVIDPDTSKNQVSLQLNSVTPEDSAIYYCARGGHITEFGLNIDAYDIWGQGAMVTVSS
VL: DIQMTQSPSSLSASVGDRVTISCRAQSLSSYLHWYQQKPGQPPKLLIYAATTLQSGVPSRFSGSGSGTDFTLTISTFQAEDVATYYCQQSRTFGQGTKVEIK

Key:
Assay in all cases: cell-based or functional assay
[1] = molecular target: HA of A/Fort Monmouth/1/47 (H1N1) virus (influenza A virus)
[2] = molecular target: HA of A/Kawasaki/9/86 (H1N1) virus (influenza A virus)
[3] = molecular target: HA of ca A/Texas/36/91 (H1N1) virus (influenza A virus)
[4] = molecular target: HA of ca A/Beijing/262/95 (H1N1) virus (influenza A virus)
[5] = molecular target: HA of ca A/New Caledonia/20/99 (H1N1) virus (influenza A virus)
HA of H1-BS10 virus = molecular target: HA of H1-BS10 virus
[6] = molecular target: HA of A/Hong Kong/8/68 (H3N2) virus (influenza A virus)
[7] = molecular target: HA of A/Victoria/3/75 (H3N2) virus (influenza A virus, UniProt P03435 17-567)
Sequence of HA of A/Victoria/3/75 (H3N2) virus (P03435 17-567 limits assumed): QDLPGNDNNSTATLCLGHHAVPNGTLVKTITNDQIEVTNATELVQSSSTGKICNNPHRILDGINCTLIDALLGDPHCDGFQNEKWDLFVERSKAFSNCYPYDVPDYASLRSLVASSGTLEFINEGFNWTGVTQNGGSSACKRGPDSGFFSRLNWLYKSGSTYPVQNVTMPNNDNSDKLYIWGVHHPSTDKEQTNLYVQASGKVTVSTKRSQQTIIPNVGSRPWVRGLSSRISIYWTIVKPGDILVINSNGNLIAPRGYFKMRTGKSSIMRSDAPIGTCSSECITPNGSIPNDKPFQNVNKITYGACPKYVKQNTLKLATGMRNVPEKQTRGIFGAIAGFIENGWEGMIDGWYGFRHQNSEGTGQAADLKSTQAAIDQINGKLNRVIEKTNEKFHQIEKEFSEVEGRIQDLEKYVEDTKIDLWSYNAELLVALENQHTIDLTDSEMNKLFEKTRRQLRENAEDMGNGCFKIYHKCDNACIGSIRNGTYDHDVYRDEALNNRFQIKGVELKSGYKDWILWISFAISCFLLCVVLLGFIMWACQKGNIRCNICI

[8] = molecular target: HA of H3-LA87 (A/Los Angeles/7/09 (H3N2)) virus (influenza A virus)
[9] = molecular target: HA of ca A/Wuhan/359/95 (H3N2) virus (influenza A virus)
[10] = molecular target: HA of ca A/Sydney/5/97 (H3N2) virus (influenza A virus)
[11] = molecular target: HA of ca A/Panama/2007/99 (H3N2) virus (influenza A virus)
[12] = molecular target: HA of A/Wisconsin/67/05 (H3N2) virus (influenza A virus)
[13] = molecular target: HA of ca A/Perth/16/09 (H3N2) virus (influenza A virus)
[14] = molecular target: HA of A/Victoria/361/11 (H3N2) virus (influenza A virus)
[15] = molecular target: HA of ca A/Wuhan/359/95 (H3N2) virus (influenza A virus); remark: listed apart in the source
[16] = molecular target: HA of A/Puerto Rico/8/34 (H1N1) virus (influenza A virus, UniProt P03452 18-565)
Sequence of HA of A/Puerto Rico/8/34 (H1N1) virus (P03452 18-565 limits assumed): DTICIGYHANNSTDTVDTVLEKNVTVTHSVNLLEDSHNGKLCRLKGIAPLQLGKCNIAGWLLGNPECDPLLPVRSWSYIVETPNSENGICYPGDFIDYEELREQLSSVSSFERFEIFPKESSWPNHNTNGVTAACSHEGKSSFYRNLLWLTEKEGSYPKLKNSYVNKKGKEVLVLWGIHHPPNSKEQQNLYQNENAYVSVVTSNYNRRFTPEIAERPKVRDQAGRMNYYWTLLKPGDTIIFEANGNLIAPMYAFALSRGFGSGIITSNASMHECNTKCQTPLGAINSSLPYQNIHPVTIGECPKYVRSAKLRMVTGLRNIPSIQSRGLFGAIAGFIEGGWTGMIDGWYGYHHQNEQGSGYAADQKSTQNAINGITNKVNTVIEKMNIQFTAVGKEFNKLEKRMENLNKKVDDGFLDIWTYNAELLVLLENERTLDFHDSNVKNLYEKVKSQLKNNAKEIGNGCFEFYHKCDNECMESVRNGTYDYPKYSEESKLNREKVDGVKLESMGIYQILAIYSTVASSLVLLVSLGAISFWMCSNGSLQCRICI

Binder	Neutralization IC50, H1-FM47 [1] [µg/mL]	Neutralization IC50, H1-Kaw86 [2] [µg/mL]	Neutralization IC50, H1-TX91 [3] [µg/mL]	Neutralization IC50, H1-BJ95 [4] [µg/mL]	Neutralization IC50, H1-Ncal99 [5] [µg/mL]	Neutralization IC50, H1-BS10 (HA of H1-BS10 virus) [µg/mL]	Neutralization IC50, H3-HK68 [6] [µg/mL]	Neutralization IC50, H3-Vic75 [7] [µg/mL]	Neutralization IC50, H3-LA87 [8] [µg/mL]	Neutralization IC50, H3-WH95 [9] [µg/mL]	Neutralization IC50, H3-WH95-OR [9] [µg/mL]	Neutralization IC50, H3-Syd97 [10] [µg/mL]	Neutralization IC50, H3-Pa99 [11] [µg/mL]	Neutralization IC50, H3-Wl05 [12] [µg/mL]	Neutralization IC50, H3-Perth09 [13] [µg/mL]	Neutralization IC50, H3-VC11 [14] [µg/mL]	Neutralization IC50, H3-WH95 [15] [µg/mL]	IC50 (read off the curve) [16] [µg/mL]
B1	0.43	0.53	0.11	1.01	0.66	1.15	0.46	0.46	0.8	2.45	2.26	1.53	2.18	1.07	0.17	0.85	–	–
B2	0.5	0.41	0.09	1.86	0.77	1.23	0.44	0.43	1	2.77	3.01	2.18	2.62	1.19	0.28	1.03	–	–
B3	0.44	0.35	0.09	2.09	0.67	1.93	0.65	0.44	0.83	2.77	3.09	1.82	4.36	1.19	0.47	1.15	–	–
B4	–	–	–	–	–	–	–	–	–	–	–	–	–	–	–	–	8.7	–
B5	–	–	–	–	–	–	–	–	–	5.63	7.7	–	–	–	–	–	3.96	~0.6
B6	0.35	0.48	0.13	1.81	0.79	1.89	0.5	0.35	0.83	3.32	3.48	1.79	3.39	1.3	0.5	1.29	–	–
B7	0.28	0.28	0.12	1.31	0.61	1.25	0.42	0.32	0.82	2.09	2.34	1.56	–	–	0.25	0.83	–	~0.5
B8	–	–	–	–	–	–	–	–	–	–	–	–	–	–	–	–	> 50	–
B9	–	–	–	–	–	–	–	–	–	–	–	–	–	–	–	–	3.72	–
B10	–	–	–	–	–	–	–	–	–	–	–	–	–	–	–	–	10.5	–
